Assay results as given in the supplement of paper PMC10567573.
± gives the standard deviation.

Assay: protein stability index of a GFP-peptide fusion (GPS, HEK-293T) (PSI 1-6); higher = more stable
Conditions: c terminus: a fixed tail appended
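Note: 24-mer peptide tiles fused after GFP, lentivirally expressed, FACS-sorted into six equal bins by GFP/DsRed ratio, decoded by Illumina sequencing, PSI is the read-weighted mean bin number.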

## SLNMSRRDSESTRHDSETEDMLWD [PHTF1]
treatment: DMSO
  protein stability index: 5.32 ± 0.15
treatment: MLN4924 1 uM, 8 h
  protein stability index: 5.26 ± 0.2

## GRFKLSIPHTHLLATLDPLALDRE [WDR88]
treatment: DMSO
  protein stability index: 2.76 ± 0.24
treatment: MLN4924 1 uM, 8 h
  protein stability index: 2.76 ± 0.34

## DVCSFPNALVTKLLLDCGAEVNAV [FEM1B]
treatment: DMSO
  protein stability index: 2.48 ± 0.83
treatment: MLN4924 1 uM, 8 h
  protein stability index: 2.44 ± 0.48

## HIFGDLDSYIPLHEDLLTRIGEAT [NET1]
treatment: DMSO
  protein stability index: 2.96 ± 0.14
treatment: MLN4924 1 uM, 8 h
  protein stability index: 2.93 ± 0.17

## MLQATAEANNLAAAASAKDIYYNN [ATL3]
treatment: DMSO
  protein stability index: 3.15 ± 0.18
treatment: MLN4924 1 uM, 8 h
  protein stability index: 3.44 ± 0.38

## NTRGTGSSSSGVLMVGPNFRVGKK [CSNK1G3]
treatment: DMSO
  protein stability index: 4.48 ± 0.2
treatment: MLN4924 1 uM, 8 h
  protein stability index: 4.51 ± 0.18

## GRDSEGPAEGEGRLGRCMRRLRDM [KCNG1]
treatment: DMSO
  protein stability index: 4.99 ± 0.15
treatment: MLN4924 1 uM, 8 h
  protein stability index: 4.76 ± 0.15

## HFQEAIDFIDCVREKGGKVLVHCE [DUSP5]
treatment: DMSO
  protein stability index: 2.76 ± 0.39
treatment: MLN4924 1 uM, 8 h
  protein stability index: 2.76 ± 0.53

## EVANFYYEADCLAAAYGGKAAPAA [CEBPB]
treatment: DMSO
  protein stability index: 2.91 ± 0.38
treatment: MLN4924 1 uM, 8 h
  protein stability index: 2.83 ± 0.38

## AVLDCLLDFLPKDVKKEKLSPDIM [TENT5D]
treatment: DMSO
  protein stability index: 2.99 ± 0.65
treatment: MLN4924 1 uM, 8 h
  protein stability index: 2.63 ± 0.52

## SQKATRECEKSALTPGFSDNAIML [FAN1]
treatment: DMSO
  protein stability index: 3.85 ± 0.22
treatment: MLN4924 1 uM, 8 h
  protein stability index: 3.98 ± 0.17

## AQVDGAAMFAADPKKPIGGNIIAH [RAD51]
treatment: DMSO
  protein stability index: 4.23 ± 0.18
treatment: MLN4924 1 uM, 8 h
  protein stability index: 4.36 ± 0.17

## ECKQLSESQVKSLCEKAKEILTKE [PPP2CA]
treatment: DMSO
  protein stability index: 4.64 ± 0.2
treatment: MLN4924 1 uM, 8 h
  protein stability index: 4.82 ± 0.18

## TYTHGLGLHRRPGAGHCSASPGPA
treatment: DMSO
  protein stability index: 3.42 ± 0.24
treatment: MLN4924 1 uM, 8 h
  protein stability index: 3.48 ± 0.24

## SHAGKVVLRSWYEKNKHIFPASRW [FAM50A]
treatment: DMSO
  protein stability index: 2.4 ± 0.3
treatment: MLN4924 1 uM, 8 h
  protein stability index: 2.58 ± 0.21

## FVELQGFLAAEQDIREEIRKVVQS [TSN]
treatment: DMSO
  protein stability index: 2.21 ± 0.41
treatment: MLN4924 1 uM, 8 h
  protein stability index: 2.48 ± 0.82

## RLVRVFRIFKLSRHSKGLQILGQT [KCNA1]
treatment: DMSO
  protein stability index: 2.65 ± 0.57
treatment: MLN4924 1 uM, 8 h
  protein stability index: 2.29 ± 0.36

## HFGWYLGWGDCVWLPYLYTLQGLY [DHCR7]
treatment: DMSO
  protein stability index: 3.09 ± 0.84
treatment: MLN4924 1 uM, 8 h
  protein stability index: 3.29 ± 0.11

## PFTPLHIKVKPKRVGIFLDYEAGT [TRIM39]
treatment: DMSO
  protein stability index: 2.45 ± 0.28
treatment: MLN4924 1 uM, 8 h
  protein stability index: 2.67 ± 0.26

## LREIPETTPIEEVKGLFKSENCPK [LARP4]
treatment: DMSO
  protein stability index: 5.06 ± 0.19
treatment: MLN4924 1 uM, 8 h
  protein stability index: 5.1 ± 0.33

## FRFAPNHTKELEDKVIELHKSHRG [EPB41L3]
treatment: DMSO
  protein stability index: 2.88 ± 0.58
treatment: MLN4924 1 uM, 8 h
  protein stability index: 3.2 ± 0.68

## HGLLGSPVRAAASSPVTTLTQTMH [CDC25B]
treatment: DMSO
  protein stability index: 3.7 ± 0.21
treatment: MLN4924 1 uM, 8 h
  protein stability index: 3.79 ± 0.17

## LLDKTCDQVMEFSWSALWNITDET [ZER1]
treatment: DMSO
  protein stability index: 2.37 ± 0.28
treatment: MLN4924 1 uM, 8 h
  protein stability index: 2.35 ± 0.34

## TAIFYTLMTCEMLNRRNGSLRIAL [EDNRA]
treatment: DMSO
  protein stability index: 2.85 ± 0.21
treatment: MLN4924 1 uM, 8 h
  protein stability index: 3.15 ± 0.42

## KLAVFMWLMTYVGAVFNGITLLIL [RTN3]
treatment: DMSO
  protein stability index: 2.97 ± 0.23
treatment: MLN4924 1 uM, 8 h
  protein stability index: 3.21 ± 0.39

## SIHYAAAYGHRQCLELVSCFVLFS [ANKRD44]
treatment: DMSO
  protein stability index: 2.25 ± 0.44
treatment: MLN4924 1 uM, 8 h
  protein stability index: 2.2 ± 0.52

## EVEWTEDLALDLGPQSRELTLKVL [C2CD2L]
treatment: DMSO
  protein stability index: 3.44 ± 0.19
treatment: MLN4924 1 uM, 8 h
  protein stability index: 3.6 ± 0.36

## ENLDNDTETDSLVSAQRERPRRRD [DVL3]
treatment: DMSO
  protein stability index: 5.51 ± 0.2
treatment: MLN4924 1 uM, 8 h
  protein stability index: 5.41 ± 0.29

## TQYVRHSSDPFYTPEPDTCHELLG [TPH1]
treatment: DMSO
  protein stability index: 3.63 ± 0.35
treatment: MLN4924 1 uM, 8 h
  protein stability index: 4 ± 0.32

## LGSIFQQLAHMVKEQEETIQRIDE [STX5]
treatment: DMSO
  protein stability index: 4.48 ± 0.2
treatment: MLN4924 1 uM, 8 h
  protein stability index: 4.26 ± 0.098

## CQDQNVPVENFFVKCNGALINTSD [SDE2]
treatment: DMSO
  protein stability index: 3.3 ± 0.23
treatment: MLN4924 1 uM, 8 h
  protein stability index: 3.27 ± 0.47

## KKELEENFEKLRLSLQDQVDTLTF [MTUS2]
treatment: DMSO
  protein stability index: 3.94 ± 0.64
treatment: MLN4924 1 uM, 8 h
  protein stability index: 3.8 ± 0.42

## LGVAVAVLGGFLYAVGGSDGTSPL [KLHL20]
treatment: DMSO
  protein stability index: 2.86 ± 0.64
treatment: MLN4924 1 uM, 8 h
  protein stability index: 2.85 ± 0.51

## PFGFQTVTSDVNKLSSFYSLKLIK [SERPINB5]
treatment: DMSO
  protein stability index: 2.15 ± 0.17
treatment: MLN4924 1 uM, 8 h
  protein stability index: 2.31 ± 0.41

## GYRCFVCPVEYNNDTNSFTVDCEP [CDS2]
treatment: DMSO
  protein stability index: 2.35 ± 0.47
treatment: MLN4924 1 uM, 8 h
  protein stability index: 2.58 ± 0.51

## EEEMNALRGQVGGEINVEMDAAPG [KRT17]
treatment: DMSO
  protein stability index: 5.45 ± 0.34
treatment: MLN4924 1 uM, 8 h
  protein stability index: 5.53 ± 0.13

## WFQNKRSKFKKLMKQGGAALEGSA [DLX1]
treatment: DMSO
  protein stability index: 2.62 ± 0.4
treatment: MLN4924 1 uM, 8 h
  protein stability index: 3.01 ± 0.36

## GKMVEEVDGRATQKLIVNLKPEKS [PTPRD]
treatment: DMSO
  protein stability index: 4.69 ± 0.13
treatment: MLN4924 1 uM, 8 h
  protein stability index: 4.66 ± 0.29

## GGDLEEQQHAEGSPEPGTPAAPTP [DNAAF3]
treatment: DMSO
  protein stability index: 5.61 ± 0.26
treatment: MLN4924 1 uM, 8 h
  protein stability index: 5.54 ± 0.31

## KDARQWFAELSVDMEKILEIIRVI [CCNC]
treatment: DMSO
  protein stability index: 2.24 ± 0.38
treatment: MLN4924 1 uM, 8 h
  protein stability index: 2.15 ± 0.35

## QFNVSGPGLLEEDNQWMTQINRLQ [NECAB1]
treatment: DMSO
  protein stability index: 3.02 ± 0.13
treatment: MLN4924 1 uM, 8 h
  protein stability index: 3.31 ± 0.19

## PAEQAFWCLVQICEKYLPGYYSEK [TBC1D10A]
treatment: DMSO
  protein stability index: 3.37 ± 0.55
treatment: MLN4924 1 uM, 8 h
  protein stability index: 3.46 ± 0.48

## PHYICTLKQPHLLLEKYSYYLISG [PNLIPRP1]
treatment: DMSO
  protein stability index: 2.78 ± 0.81
treatment: MLN4924 1 uM, 8 h
  protein stability index: 2.74 ± 0.69

## QDIERGVQSEIFLHESYCMDTSHQ [LYSMD4]
treatment: DMSO
  protein stability index: 4.24 ± 0.15
treatment: MLN4924 1 uM, 8 h
  protein stability index: 4.25 ± 0.14

## GGGLLKYSNLLVRDFRPTDQEEIK [TENT5C]
treatment: DMSO
  protein stability index: 3.79 ± 0.32
treatment: MLN4924 1 uM, 8 h
  protein stability index: 3.75 ± 0.6
